These results are taken from publication PMC8298602 (2021).

Experiment [1] concerns the target Nedd^335-455pT367 + pS448 (human, UniProt Q96PU5 335-455, S342A, phosphothreonine at 367, phosphoserine at 448). Nature of the experiment: AUC.
The target of experiment [2] is Nedd^335-455pS342 + pT367 (human, UniProt Q96PU5 335-455, S448A, phosphoserine at 342, phosphothreonine at 367). As to the kind of experiment: AUC.

B1: 14-3-3η (natural protein)
chain: MGDREQLLQRARLAEQAERYDDMASAMKAVTELNEPLSNEDRNLLSVAYKNVVGARRSSWRVISSIEQKTMADGNEKKLEKVKAYREKIEKELETVCNDVLSLLDKFLIKNCNDFQYESKVFYLKMKGDYYRYLAEVASGEKKNSVVEASEAAYKEAFEISKEQMQPTHPIRLGLALNFSVFYYEIQNAPEQACLLAKQAFDDAIAELDTLNEDSYKDSTLIMQLLRDNLTLWTSDQQDEEAGEGN
For B1, the dissociation constant Kd in experiment [1] was found to be 0.17 µM; in experiment [2] it was 0.2 µM.
